This is an account of results in patent US20240400698A1, “ANTI-CHEMOKIN LIKE RECEPTOR 1 ANTIBODIES AND THEIR THERAPEUTIC APPLICATIONS” (OSE IMMUNOTHERAPEUTICS, priority 2018, published 2024).

The subject of one test is MC38 cells. The experiment in a line: MC38 colon carcinoma model. Conditions: FIG. 9D, 20 μg/injection i.p. for 3 weeks, vs isotype control. It counts as in vivo, mice. On the procedure:
FIG. 9. […] Two mice models were studied, and animals received isotype control antibody (3G8) (x) or anti-CMKLR1 (2G1) ( ) at 20 μg/injection intraperitoneally for 3 weeks. A-C. Results in the CT26 colon carcinoma model comparing single treatment with p84 (A) and 2G1 (B) with combined therapy with both antibodies (C). D: Results in the MC38 colon carcinoma model.
8-week old C57bl/6J male mice were anesthetized with 3% of isoflurane. Mice were shaved on the flank and MC38 cells (0.5·10^6 cells/mouse) cell lines were injected subcutaneously with an insulinic syringe (30 Gauges) in 50 μL of PBS. Another model was used, in which 8-week old Balb/c male mice were anesthetized with 3% of isoflurane. Mice were shaved on the flank and CT26 cells (1·10^6 cells/mouse) were injected subcutaneously with an insulinic syringe (30 Gauges) in 50 μL of PBS.
The agonistic anti-CMKLR1 antibody (2G1) or an anti-SIRPa antibody (p84-anti-mouse SIRPa from Merck Millipore) (SIRPa is a new checkpoint inhibitor) were injected once a week (20 μg/injection) intraperitoneally for 3 weeks starting at d4 after tumor inoculation alone or combined.

The test system of the next test is Mice dendritic cells. The experiment in a line: Maturation and differentiation of mice bone marrow derived dendritic cells, activation markers and viability by FACS. It counts as cell-based. On the procedure: FIG. 1. Effect of the anti-CMKLR1 variants 1G1, 2G1, 3G1 and 4G1 chimeric antibodies on the DCs maturation and differentiation. Mice dendritic cells were incubated during maturation phase (24 h or 48 h) followed by a differentiation phase with excipient or RvE1 or anti-CMKLR1 antibodies variants (mutations on positions 1 and 2 of SEQ ID No. 8, corresponding to the VH-CDR3: 1G1 (LL), 2G1 (LI), 3G1 (IL) or 4G1 (II) or isotype controls (hIgG1 or mIgG)). Cells were then stained for FACS analysis with cell marker antibodies: A. CD80-PE; B. CD86-FITC; C. CD103-PerCPCy5.5; D. I/Ab-APC. Mean of Fluorescence was determined in each condition. E and F represent the viability of the cells measured by FACS using LIVE/DEAD® kit from Life Technologies in each condition after 24 or 48 hours of maturation respectively.
FIG. 17. Study of the myeloid cell activation markers after CMKLR1 pathway activation. Dendritic cells incubated in excipient, RvE1, 2G1 or isotype control (hIgG1) were then stained for FACS analysis with marker antibodies: A. CD80-PE. B. CD86-FITC. C. CD103-PerCPCy5.5. D. CD40-PeCy7. E. I/Ab-APC. Mean of Fluorescence was determined in each condition.
Bone marrow cells were harvested and cultured in RPMI medium supplemented with 10% FBS, glutamine and antibiotics and the dendritic cell differentiation was induced by GM-CSF at 20 ng/ml for 7 days. Then, immature dendritic cells (iDC) were collected and cultured for 24 hours with LPS (100 ng/ml) to induce the maturation from iDC to mDC. Treatments were added during differentiation and maturation at 2 μg/ml.
Dendritic cells were resuspended in PBS-FBS-EDTA and incubated with live and dead (LIVE/DEAD® Fixable Dead Cell Stains Yellow-Life Technologies) for 30 minutes on ice. Staining of CD11c-BV711, CD11b-APCCy7, I/Ab-APC, CD103-PerCPCy5.5, CCR7-V450, CD40-PeCy7, CD80-PE, CD86-FITC (all provided by BD Pharmingen) were performed.
For orientation: Flow cytometry measures light scatter and fluorescence of single cells or particles in a stream.

B1: 2G1: chimeric anti-CMKLR1 antibody, murine variable regions (SEQ ID No: 10 and 17), human IgG1 constant regions; VH-CDR3 variant LI (antibody, V domains shown)
VH: METDTLLLWVLLLWVPGSTGDEVQLVASGGGLVQPGGSLKLSCAASGFTFSSYGMSWVRQTPDRRLELVATINRYGGSTYYPDSVKGRFTISRDNAKNTLYLQMSSLKSEDTAMYYCPRLIYYGNEGDSWGQGTTLTVSS
VL: METDTLLLWVLLLWVPGSTGDQIVLTQSPAIMSASPGEKVTMTCSASSSVSFMHWYQQKSGTSPKRWIYDTTKLTSGVPARFSGSGSGTFYSLTISSMEAEDAATYYCQQWNSKPPLTFGPGTKLELKR
modifications: human IgG1 constant regions
notes: VH-CDR3 variant LI
With B1, in the test on MC38 cells, the tumor growth entry is listed as “did show an efficacy in the inhibition of the tumor growth”. The “level of detection of DCs expressing CD103 and IAb” value in the test on Mice dendritic cells (FIG. 1, FACS, compared with C7 antibody) is reported as “lower than DCs cells treated with C7 antibody”. Besides, the “DCs activation and/or maturation towards a pro-inflammatory pathway” value in the test on Mice dendritic cells (FIG. 1, mice dendritic cells, maturation 24 h or 48 h) was “inhibit DCs activation and/or maturation in a stronger manner than other synthetized antibodies (3G1 and 4G1)”. Also, in the test on Mice dendritic cells (FIG. 17, FACS, compared to the excipient or isotype control), the “expression of CD80, CD86, CD103, CD40 and IAb (DC activation markers)” value is listed as “strong decrease”. Besides, the viability of cells entry in the test with Mice dendritic cells (FIGS. 1E and 1F, LIVE/DEAD kit, after 24 or 48 hours of maturation, compared with other antibodies, C7 or Resolvin E1) was “enhanced”.
